Reference: patent US12186353B2, “Method of reducing neuronal microtubule binding protein Tau (Tau) levels” (ADAERATA, LIMITED PARTNERSHIP, priority 2018, dated 2025)

Tests used:
Assay type in all cases: cell-based
Tau [1] = assay: Western blot of Tau fusion protein levels in HEK293T cells co-expressing Numb isoforms; details: 48 hours after transfection
From the text: FIGS. 6A-I: Isoform Numb-72 interacts with Tau and regulates Tau level. FIG. 6A. Schematic of 4 Numb isoforms, differing with the presence or the absence of an insertion (arrowhead) in PTB domain arrowhead, and the presence or the absence of an insertion in the proline-rich region (PRR). FIG. 6B. Coimmunoprecipitation of Tau and 4 isoforms of Numb in HEK293 cells. Each Numb isoform was transfected in HEK293T cells together with a flag-tagged version of Tau and immunoprecipitation was perform 24 hours later with a flag antibody and blotted for Numb. […] FIG. 6C. Detection of Tau::GFP level in presence of 4 isoforms of Numb by western blot in HEK293. All the Numb isoforms were transfected with a Tau::GFP fusion protein in HEK293T cells and the levels of Tau::GFP was analysed by western blot 48 hours after transfection. FIG. 6D. Schematic representation of DNA construct of a human-medulloblastoma-derived cell line (DAOY) expressing human Tau fused with EGFP (Lasagna-Reeves et al., 2016). Additionally, this cell line expresses DsRed upstream of an internal ribosomal entry site (IRES), which is translated independently of the Tau-GFP protein. DsRed-IRES-Tau::EGFP expressing cells were used to assess the abundance of Tau by monitoring the Tau-GFP to DsRed fluorescence ratio. FIG. 6E. DsRed and Tau::EGF expression in Daoy cells, transfected with Myc only construct. FIGS. 6F-J. Fluorescence-activated cell sorting (FACs) analysis of the 4 Numb isoforms affected 3 days after transfection on ratio DsRed versus DsRed and GFP-positives cells compared to the control (Myc-Tag). FIG. 6K Quantification represents fold change for 5 experiments, +/− SEM, **p≤0.001; n.s. non-significant Anova 1-way test.
Numb72::Myc. HEK293T cells were transfected with Jet Prime using the following constructs Tau::Flag, Tau::GFP, Numb65, Numb66, Numb71 and Numb72.
Cells were harvested, and lysed in a NP-40 buffer (50 mm TRIS, pH 8.0, 150 mm NaCl, 1.0% NP-40 with Complete Protease Inhibitor Cocktail (Roche)). For immunoblotting, 40 μg of protein samples for in vivo blot and 10 ug for in vitro blot were loaded on a 10% acrylamide SDS-PAGE gels for separation by electrophoresis migration and then transferred onto PVDF membranes using transblot machine (Millipore). […] The primary antibody was detected with an HRP-conjugated goat anti-rabbit (1:10,000; Jackson Immunoresearch) in 0.5% dry milk in TBST. […]
To determine whether increasing the levels of Numb could affect the levels of Tau, the inventors co-expressed all isoforms of Numb together with a Tau::Venus fusion protein in HEK293T cells and analyzed the levels of Tau::Venus by western blot 48 hours after transfection.

Tau::GFP fusion protein = assay: Intracellular Tau::GFP fluorescence in stable inducible HEK293 cells with proteasome or lysosome inhibitor; details: stable inducible HEK293, Numb72 vs control empty vector, fixed 48 h after doxycycline
Description: FIG. 7A Stable inducible cell line HEK293 that express a Tau::GFP fusion protein was transfected with Control Myc or Numb72::Myc, and the Tau::GFP expression was activated by adding Doxycycline 6 h later. The cells were fixed 48 h later and stained for Myc. FIG. 7B. The mean intensity (±SEM) of intracellular Tau::GFP fluorescence in transfected cells was quantified. Cells were treated with vehicle, MG132 (a proteasome inhibitor, 25 uM) or Chloroquine (a lysosome inhibitor, 25 uM) for 4 h before fixation and Myc staining. Quantification represents mean intensity +/− SEM, *p≤0.01; Anova 1-way test.
The potential role of the proteasome and of the lysosome on the ability of Numb to reduce Tau levels was assessed. A stable inducible cell line (HEK293) expressing a Tau::GFP fusion protein was transfected with
Numb72 or a control empty vector. The intracellular Tau::GFP levels was compared when the cells were treated with a proteasome inhibitor (MG132), a lysosome inhibitor (Chloroquine) or a control (vehicle). […] (FIGS. 7A-B).

Tau [2] = assay: Dot blot of monomeric and oligomeric Tau in the media of HEK293T cells expressing Tau; details: media collected 24 h after doxycycline, vs GFP control
Description: FIGS. 9A-B: Numb72 stimulates secretion of the monomeric form of Tau in the extracellular media in cell lines, but not oligomeric (toxic) Tau. FIG. 9A. Dot blot of monomeric Tau levels (5A6) and oligomer of Tau (T22) in the media of HEK293T stable inducible cells line expressing Tau transfected with either GFP (Control) or Numb72. Tau expression was activated by adding Doxycycline 6 h after transfection and the media collected 24 h later for Dot-blot. FIG. 9B. Quantification of extracellular Tau levels; data are mean±SEM, n.s non-significant; *p<0.05. Student's t test, n=6 for Tau5A6 and n=4 for T22.
The impact of Numb on the secretion of monomeric and oligomeric Tau was assessed. A cell line (HEK293T) expressing Tau was transfected with either GFP (Control) or Numb72, and the monomeric Tau (5A6) and oligomeric Tau (T22) levels were assessed in the cell media by dot blot assay on the collected culture medium.

B1: Numb-72: 72 kDa Numb isoform with long PTB domain and long PRR; human isoform 1 (SEQ ID NO: 1); expressed by transfection (protein)
chain: MNKLRQSFRRKKDVYVPEASRPHQWQTDEEGVRTGKCSFPVKYLGHVEVDESRGMHICEDAVKRLKAERKFFKGFFGKTGKKAVKAVLWVSADGLRVVDEKTKDLIVDQTIEKVSFCAPDRNFDRAFSYICRDGTTRRWICHCFMAVKDTGERLSHAVGCAFAACLERKQKREKECGVTATFDASRTTFTREGSFRVTTATEQAEREEIMKQMQDAKKAETDKIVVGSSVAPGNTAPSPSSPTSPTSDATTSLEMNNPHAIPRRHAPIEQLARQGSFRGFPALSQKMSPFKRQLSLRINELPSTMQRKTDFPIKNAVPEVEGEAESISSLCSQITNAFSTPEDPFSSAPMTKPVTVVAPQSPTFQANGTDSAFHVLAKPAHTALAPVAMPVRETNPWAHAPDAANKEIAATCSGTEWGQSSGAASPGLFQAGHRRTPSEADRWLEEVSKSVRAQQPQASAAPLQPVLQPPPPTAISQPASPFQGNAFLTSQPVPVGVVPALQPAFVPAQSYPVANGMPYPAPNVPVVGITPSQMVANVFGTAGHPQAAHPHQSPSLVRQQTFPHYEASSATTSPFFKPPAQHLNGSAAFNGVDDGRLASADRHTEVPTGTCPVDPFEAQWAALENKSKQRTNPSPTNPFSSDLQKTFEIEL
modifications: homo sapiens
notes: 72 kDa Numb isoform with long PTB domain and long PRR; expressed by transfection
Question: How did the “levels of Tau::Venus by western blot” value (Tau [1]) turn out when B1 was run?
Answer: significantly reduced the levels of Tau

Question: What about the “intracellular Tau::GFP levels” value (Tau::GFP fusion protein) of the same molecule?
Answer: induced a decrease of Tau::GFP levels

Question: And the “secretion of monomeric Tau (5A6) in the cell media” value (Tau [2])?
Answer: stimulates the secretion of monomeric Tau

Question: And the “secretion of oligomeric Tau (T22) in the cell media” value (Tau [2])?
Answer: not of toxic (oligomeric) Tau
